In assay [1] the target is monkey MET ECD (cynomolgus monkey). The assay can be described thus: ELISA: MET ECD immobilized (100 ng/well), mAb in human IgG1/lambda format in solution (0-40 nM), HRP anti-human Fc. A general note: In an ELISA, binding on a coated surface is turned into a signal by an enzyme label.
For assay [2], the target named is T1, human MET ECD (human, UniProt P08581 25-932).
T1 construct: range 1-932; recombinant ECD made by standard protein engineering; also called hMET; human MET extracellular domain
Described as above. The source says:
(§1) To this end, we investigated whether our human/mouse equivalent anti-MET antibodies cross-reacted with MET from other species, including rat (Rattus norvegicus) and cynomolgus monkey (Macaca fascicularis). […] Human and mouse MET ECD were used as controls. A restricted panel of antibodies representative of both SEMA binders (71D6, 71C3, 71D4, 71A3, 71G2) and PSI binders (76H10, 71G3) was selected. The 5D5 prior art antibody was used as control. MET ECD proteins were immobilized in solid phase (100 ng/well in a 96-well plate) and exposed to increasing concentrations (0-40 nM) of antibodies (with human constant regions) in solution. […] We conclude that the 71D6, 71C3, 71D4, 71A3, 71G2, 76H10 and 71G3 antibodies bind with similar affinity and capacity to human MET, mouse MET, rat MET and simian MET, at least as determined by ELISA.

In assay [3] the target is T1, human MET ECD. The assay can be described thus: ELISA on MET ECD.
For assay [4], the target named is T2, human MET on A549 human lung carcinoma cells (human, UniProt P08581 25-1390). The assay can be described thus: cell-based or functional assay.
Assay [5] concerns the target T3, mouse MET on MLP29 mouse liver precursor cells (mouse, UniProt P16056 25-1379). The assay can be described thus: cell-based or functional assay.
Assay [6] deals with T2, human MET on A549 human lung carcinoma …. The assay can be described thus: flow cytometry, A549 cells.
The target of assay [7] is T3, mouse MET on MLP29 mouse liver …. The assay can be described thus: flow cytometry, MLP29 cells. For orientation: In flow cytometry, cells or beads pass a laser one at a time.
Assay [8] deals with T1, human MET ECD. The assay can be described thus: ELISA, mouse-format mAb on MET ECD. As for the experimental part:
(§2) In order to directly determine whether—and to what extent—the prior art agonistic anti-MET antibodies cross-reacted with mouse MET, and to compare them to our human/mouse equivalent anti-MET antibodies, we performed an ELISA assay. Since all prior art antibodies were obtained or engineered with a mouse IgG/A format, we employed the mouse IgG/A version of 71G3, 71D6 and 71G2. Human or mouse MET ECD was immobilized in solid phase (100 ng/well in a 96-well plate) and exposed to increasing concentrations of antibodies (0-40 nM) in solution. […] Among the antibodies tested, only 71G3, 71D6 and 71G2 bound to both human and mouse MET, and they did so with indistinguishable affinities and capacities.

Assay [9] addresses T4, mouse MET ECD (mouse, UniProt P16056 25-931).
T4 construct: range 1-931; recombinant ECD; also called mMET; mouse MET extracellular domain
The assay can be described thus: ELISA, mouse-format mAb on MET ECD. As for the experimental part:
as §2

Assay [10] concerns the target human MET ECD mutant I (mutations 6, 7, 8) (human) (UniProt P08581). The assay can be described thus: ELISA on mutant human MET ECD.
For assay [11], the target named is human MET ECD mutant J (mutations 6, 7) (human) (UniProt P08581). The assay can be described thus: ELISA on mutant human MET ECD.
A further assay concerns the target rat MET ECD (rat) (UniProt P97523). The assay can be described thus: ELISA: MET ECD immobilized (100 ng/well), mAb in human IgG1/lambda format in solution (0-40 nM), HRP anti-human Fc.
Assay [12] concerns the target T4, mouse MET ECD. The description is as above.
Description: as §1

The target in the next assay is T5, monkey MET ECD (cynomolgus monkey, UniProt A0A2K5UM36 25-932).
T5 construct: also called simian MET; cynomolgus monkey MET
The description is as above.
Description: as §1

The target of assay [13] is T4, mouse MET ECD. The assay can be described thus: ELISA on MET ECD.

As a reminder, the EC50 (read off the curve) is the concentration giving half of the maximal effect. The term EC50 denotes the concentration giving half of the maximal effect.

T5 sequence (A0A2K5UM36 entry or part of it limits assumed): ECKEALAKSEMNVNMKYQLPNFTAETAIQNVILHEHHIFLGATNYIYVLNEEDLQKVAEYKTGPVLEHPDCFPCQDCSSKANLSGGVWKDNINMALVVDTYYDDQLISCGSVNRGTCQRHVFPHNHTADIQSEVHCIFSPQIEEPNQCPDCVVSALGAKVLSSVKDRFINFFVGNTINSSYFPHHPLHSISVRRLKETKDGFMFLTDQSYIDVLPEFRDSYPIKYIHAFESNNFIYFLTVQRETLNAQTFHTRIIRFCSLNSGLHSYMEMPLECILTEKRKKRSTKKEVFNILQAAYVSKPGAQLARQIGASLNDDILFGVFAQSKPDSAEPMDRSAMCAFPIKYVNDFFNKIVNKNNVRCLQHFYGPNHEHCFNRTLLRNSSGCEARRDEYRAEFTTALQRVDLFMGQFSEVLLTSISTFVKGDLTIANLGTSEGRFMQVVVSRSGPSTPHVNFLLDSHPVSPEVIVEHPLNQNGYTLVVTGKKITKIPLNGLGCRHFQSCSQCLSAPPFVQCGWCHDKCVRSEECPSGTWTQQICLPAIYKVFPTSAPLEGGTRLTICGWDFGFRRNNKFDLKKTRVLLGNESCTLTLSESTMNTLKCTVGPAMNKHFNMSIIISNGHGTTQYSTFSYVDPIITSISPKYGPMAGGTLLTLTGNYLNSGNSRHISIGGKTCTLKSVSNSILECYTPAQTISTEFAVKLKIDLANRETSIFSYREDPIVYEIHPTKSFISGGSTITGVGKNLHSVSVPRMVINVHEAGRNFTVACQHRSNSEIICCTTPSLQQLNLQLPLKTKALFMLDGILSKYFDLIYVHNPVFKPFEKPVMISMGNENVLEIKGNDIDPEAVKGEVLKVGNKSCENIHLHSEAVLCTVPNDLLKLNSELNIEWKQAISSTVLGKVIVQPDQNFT
Sequence of rat MET ECD (rat) (P97523 25-931 limits assumed, form in doubt): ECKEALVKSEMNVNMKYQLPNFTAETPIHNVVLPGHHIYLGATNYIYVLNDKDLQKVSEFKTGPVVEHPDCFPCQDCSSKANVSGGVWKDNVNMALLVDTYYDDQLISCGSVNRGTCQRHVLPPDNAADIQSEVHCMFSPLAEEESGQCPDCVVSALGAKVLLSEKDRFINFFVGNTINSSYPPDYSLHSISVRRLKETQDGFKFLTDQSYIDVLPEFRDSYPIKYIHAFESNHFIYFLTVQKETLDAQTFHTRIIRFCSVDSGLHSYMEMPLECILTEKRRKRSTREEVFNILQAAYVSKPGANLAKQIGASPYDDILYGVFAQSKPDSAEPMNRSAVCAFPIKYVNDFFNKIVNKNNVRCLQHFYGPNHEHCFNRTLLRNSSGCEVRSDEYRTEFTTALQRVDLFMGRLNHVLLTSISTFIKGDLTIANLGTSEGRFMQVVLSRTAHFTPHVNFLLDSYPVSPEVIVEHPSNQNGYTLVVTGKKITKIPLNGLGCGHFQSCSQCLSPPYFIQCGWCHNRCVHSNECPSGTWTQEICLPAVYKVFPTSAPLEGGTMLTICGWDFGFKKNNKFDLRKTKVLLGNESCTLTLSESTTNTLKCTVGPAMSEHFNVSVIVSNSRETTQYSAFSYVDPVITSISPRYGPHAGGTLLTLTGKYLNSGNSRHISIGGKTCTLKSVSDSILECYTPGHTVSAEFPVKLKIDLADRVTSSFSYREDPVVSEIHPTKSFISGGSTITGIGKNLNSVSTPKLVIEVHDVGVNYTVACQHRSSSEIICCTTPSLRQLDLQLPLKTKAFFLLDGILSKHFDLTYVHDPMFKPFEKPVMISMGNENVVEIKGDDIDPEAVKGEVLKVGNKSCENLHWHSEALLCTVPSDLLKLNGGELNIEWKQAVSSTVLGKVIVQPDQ
Sequence of monkey MET ECD (cynomolgus monkey) (A0A2K5 entry or part of it limits assumed): as the sequence (A0A2K5UM36 entry or part of it limits assumed) above

“5D5 anti-human MET antibody, human IgG1/lambda format”: the EC50 (read off the curve) in [1] stood at 300 pM; with human MET ECD [2], 200 pM.

B1: 71D6 llama-mouse chimeric mAb (mouse IgG1/lambda) (antibody)
heavy: ELQLVESGGGLVQPGGSLRLSCAASGFTFSSYGMSWVRQAPGKGLEWVSAINSYGGSTSYADSVKGRFTISRDNAKNTLYLQMNSLKPEDTAVYYCAKEVRADLSRYNDYESYDYWGQGTQVTVSSAKTTPPSVYPLAPGSAAQTNSMVTLGCLVKGYFPEPVTVTWNSGSLSSGVHTFPAVLQSDLYTLSSSVTVPSSPRPSETVTCNVAHPASSTKVDKKIVPRDCGCKPCICTVPEVSSVFIFPPKPKDVLTITLTPKVTCVVVDISKDDPEVQFSWFVDDVEVHTAQTQPREEQFNSTFRSVSELPIMHQDWLNGKEFKCRVNSAAFPAPIEKTISKTKGRPKAPQVYTIPPPKEQMAKDKVSLTCMITDFFPEDITVEWQWNGQPAENYKNTQPIMNTNGSYFVYSKLNVQKSNWEAGNTFTCSVLHEGLHNHHTEKSLSHSPGK
light: QPVLNQPSALSVTLGQTAKITCQGGSLGARYAHWYQQKPGQAPVLVIYDDDSRPSGIPERFSGSSSGGTATLTISGAQAEDEGDYYCQSADSSGSVFGGGTHLTVLGQPKSSPSVTLFPPSSEELETNKATLVCTITDFYPGVVTVDWKVDGTPVTQGMETTQPSKQSNNKYMASSYLTLTARAWERHSSYSCQVTHEGHTVEKSLSRADCS
notes: also called 71D6 (mouse format)
Regarding B1, the EC50 stood at 38 pM with human MET ECD [3], 42 pM in the assay with human MET ECD [8] and 44 pM with mouse MET ECD [9]. Besides, in assay [4], the “A549 MET act. EMAX” value was 98.3 % HGF. Also, the “MLP29 MET act. EMAX” value in assay [5] stood at 103 % HGF. The EMAX in assay [6] worked out at 122 % CTR; in assay [7] it was 119 % CTR; in the assay with human MET ECD [8] it was 2.69 OD450; with mouse MET ECD [9], 2.94 OD450.

B2: 76H10 llama-human chimeric mAb (human IgG1/lambda) (antibody, V domains shown)
VH: QLQLVESGGGLVQPGGSLRVSCTASGFTFNTYYMTWVRQAPGKGLEWVSDINSGGGTYYADSVKGRFTISRDNAKNTLYLQMNSLKPEDTALYYCVRVRIWPVGYDYWGQGTQVTVSS
VL: QAVVTQEPSLSVSPGGTVTLTCGLSSGSVTTSNYPGWFQQTPGQAPRTLIYNTNNRHSGVPSRFSGSISGNKAALTITGAQPEDEADYYCSLYTGSYTTVFGGGTHLTVLQ
Turning to B2, the % binding (EMAX) vs WT MET ECD in assay [10] is 100%; in assay [11] it was 89%. Besides, the EC50 (read off the curve) with rat MET ECD (rat) was 100 pM; in the assay with human MET ECD [2], approximately 100 pM; with mouse MET ECD [12], approximately 30 pM; with monkey MET ECD it was approximately 40 pM.

B3: 71G2 llama-mouse chimeric mAb (mouse IgG1/lambda) (antibody)
heavy: EVQLQESGGGLVQPGGSLRLSCAASGFTFSIYDMSWVRQAPGKGLEWVSTINSDGSSTSYVDSVKGRFTISRDNAKNTLYLQMNSLKPEDTAVYYCAKVYGSTWDVGPMGYGMDYWGKGTLVTVSSAKTTPPSVYPLAPGSAAQTNSMVTLGCLVKGYFPEPVTVTWNSGSLSSGVHTFPAVLQSDLYTLSSSVTVPSSPRPSETVTCNVAHPASSTKVDKKIVPRDCGCKPCICTVPEVSSVFIFPPKPKDVLTITLTPKVTCVVVDISKDDPEVQFSWFVDDVEVHTAQTQPREEQFNSTFRSVSELPIMHQDWLNGKEFKCRVNSAAFPAPIEKTISKTKGRPKAPQVYTIPPPKEQMAKDKVSLTCMITDFFPEDITVEWQWNGQPAENYKNTQPIMNTNGSYFVYSKLNVQKSNWEAGNTFTCSVLHEGLHNHHTEKSLSHSPGK
light: SSALTQPSALSVSLGQTARITCQGGSLGSSYAHWYQQKPGQAPVLVIYGDDSRPSGIPERFSGSSSGGTATLTISGAQAEDEDDYYCQSTDSSGNTVFGGGTRLTVLGQPKSSPSVTLFPPSSEELETNKATLVCTITDFYPGVVTVDWKVDGTPVTQGMETTQPSKQSNNKYMASSYLTLTARAWERHSSYSCQVTHEGHTVEKSLSRADCS
notes: also called 71G2 (mouse format)
For the molecule B3, the half-maximal effective concentration (EC50) with human MET ECD [3] was found to be 113 pM; in the assay with mouse MET ECD [13] it was 109 pM; with human MET ECD [8] it was 98 pM; with mouse MET ECD [9], 91 pM. Moreover, the “A549 MET act. EMAX” value in assay [4] turned out to be 102 % HGF. Further, the “MLP29 MET act. EMAX” value in assay [5] amounted to 102 % HGF. The EMAX amounted to 142 % CTR in [6], 128 % CTR in assay [7], 2.86 OD450 with human MET ECD [8] and 2.96 OD450 with mouse MET ECD [9].

B4: 71G3 llama-human chimeric mAb (human IgG1/lambda) (antibody)
heavy: QVQLVESGGGLVQPGGSLRVSCAASGFTFSTYYMSWVRQAPGKGLEWVSDIRTDGGTYYADSVKGRFTMSRDNAKNTLYLQMNSLKPEDTALYYCARTRIFPSGYDYWGQGTQVTVSSASTKGPSVFPLAPSSKSTSGGTAALGCLVKDYFPEPVTVSWNSGALTSGVHTFPAVLQSSGLYSLSSVVTVPSSSLGTQTYICNVNHKPSNTKVDKKVEPKSCDKTHTCPPCPAPELLGGPSVFLFPPKPKDTLMISRTPEVTCVVVDVSHEDPEVKFNWYVDGVEVHNAKTKPREEQYNSTYRVVSVLTVLHQDWLNGKEYKCKVSNKALPAPIEKTISKAKGQPREPQVYTLPPSRDELTKNQVSLTCLVKGFYPSDIAVEWESNGQPENNYKTTPPVLDSDGSFFLYSKLTVDKSRWQQGNVFSCSVMHEALHNHYTSEVFVPQSRKVI
light: QAVVTQEPSLSVSPGGTVTLTCGLSSGSVTTSNYPGWFQQTPGQAPRTLIYNTNSRHSGVPSRFSGSISGNKAALTIMGAQPEDEADYYCSLYPGSTTVFGGGTHLTVLQPKAAPSVTLFPPSSEELQANKATLVCLISDFYPGAVTVAWKADSSPVKAGVETTTPSKQSNNKYAASSYLSLTPEQWKSHRSYSCQVTHEGSTVEKTVAPTECS
Regarding B4, the figures for the % binding (EMAX) vs WT MET ECD in assay [10] and in assay [11] were 100% and 91.2%, respectively. Besides, the EC50 (read off the curve) is 100 pM with rat MET ECD (rat), approximately 80 pM with human MET ECD [2], approximately 40 pM in the assay with mouse MET ECD [12] and approximately 40 pM with monkey MET ECD.

B5: 71G3 llama-mouse chimeric mAb (mouse IgG1/lambda) (antibody)
heavy: QVQLVESGGGLVQPGGSLRVSCAASGFTFSTYYMSWVRQAPGKGLEWVSDIRTDGGTYYADSVKGRFTMSRDNAKNTLYLQMNSLKPEDTALYYCARTRIFPSGYDYWGQGTQVTVSSAKTTPPSVYPLAPGSAAQTNSMVTLGCLVKGYFPEPVTVTWNSGSLSSGVHTFPAVLQSDLYTLSSSVTVPSSPRPSETVTCNVAHPASSTKVDKKIVPRDCGCKPCICTVPEVSSVFIFPPKPKDVLTITLTPKVTCVVVDISKDDPEVQFSWFVDDVEVHTAQTQPREEQFNSTFRSVSELPIMHQDWLNGKEFKCRVNSAAFPAPIEKTISKTKGRPKAPQVYTIPPPKEQMAKDKVSLTCMITDFFPEDITVEWQWNGQPAENYKNTQPIMNTNGSYFVYSKLNVQKSNWEAGNTFTCSVLHEGLHNHHTEKSLSHSPGK
light: QAVVTQEPSLSVSPGGTVTLTCGLSSGSVTTSNYPGWFQQTPGQAPRTLIYNTNSRHSGVPSRFSGSISGNKAALTIMGAQPEDEADYYCSLYPGSTTVFGGGTHLTVLGQPKSSPSVTLFPPSSEELETNKATLVCTITDFYPGVVTVDWKVDGTPVTQGMETTQPSKQSNNKYMASSYLTLTARAWERHSSYSCQVTHEGHTVEKSLSRADCS
notes: also called 71G3 (mouse format)
With B5, the half-maximal effective concentration (EC50) with mouse MET ECD [13] worked out at 62 pM; in the assay with human MET ECD [8], 58 pM. For the same molecule, the “A549 MET act. EMAX” value in assay [4] came to 90.8 % HGF. For the same molecule, the “MLP29 MET act. EMAX” value in [5] stood at 91.9 % HGF. Moreover, the EMAX turned out to be 116 % CTR in [6], 110 % CTR in [7], 3.11 OD450 with human MET ECD [8] and 3.06 OD450 with mouse MET ECD [9].

These data come from US20190315873A1 (AGOMAB THERAPEUTICS, published 2019).
